Results from PMC5849716.

Target: 14-3-3τ (UniProt P27348)
Assay: split luciferase kinase inhibitor screen
Details: reference: DMSO-treated; sites S127

| Substance | other: suppressed fold change | fold change |
| --- | --- | --- |
| YAP (YAP1) 120-134 (from UniProt P46937) GSK650394 (SGK), 10 μM 4 h | 1.73 | – |
| YAP (YAP1) 120-134 (from UniProt P46937) API-2 (PKB), 10 μM 4 h | – | 10.6 |
| YAP (YAP1) 120-134 (from UniProt P46937) SU 4312 (VEGFR1/2), 10 μM 4 h | – | 27.9 |
| YAP (YAP1) 120-134 (from UniProt P46937) Ro 31-8220 (General), 10 μM 4 h | 5.21 | – |
| YAP (YAP1) 120-134 (from UniProt P46937) Ryuvidine (CDK4), 10 μM 4 h | – | 5.88 |
| YAP (YAP1) 120-134 (from UniProt P46937) PD 98059 (MEK), 10 μM 4 h | – | 16.9 |
| YAP (YAP1) 120-134 (from UniProt P46937) Genistein (EGFR), 10 μM 4 h | – | 6.12 |
| YAP (YAP1) 120-134 (from UniProt P46937) CGK 733 (ATM/ATR), 10 μM 4 h | 1.85 | – |
| YAP (YAP1) 120-134 (from UniProt P46937) BIO (GSKa/b), 10 μM 4 h | – | 14.4 |
| YAP (YAP1) 120-134 (from UniProt P46937) ER 27319 (SYK), 10 μM 4 h | 3.71 | – |
| YAP (YAP1) 120-134 (from UniProt P46937) PD 407824 (CHK1), 10 μM 4 h | 1.73 | – |
| YAP (YAP1) 120-134 (from UniProt P46937) Ro 08-2750 (TrkA), 10 μM 4 h | 6.51 | – |
